# Measured values reported in patent US20190112393 (published 2019).
# Biological target: human FcRn (human)
# Test: SPR, pH 6.0
row,Binder,Kd
1,F1391 (antibody) chain 1: QVQLQESGPGLVKPSETLSLTCAVSGHSISHDHAWSWVRQPPGEGLEWIGFISYSGITNYNPSLQGRVTISRDNSKNTLYLQMNSLRAEDTAVYYCARSLARTTAMDYWGEGTLVTVSSASTKGPSVFPLAPSSKSTSGGTAALGCLVKDYFPEPVTVSWNSGALTSGVHTFPAVLQSSGLYSLSSVVTVPSSSLGTQTYICNVNHKPSNTKVDKKVEPKSCDKTHTCPPCPAPELLGGPSVFLFPPKPKDTLMISRTPEVTCVVVDVSHEDPEVKFNWYVDGVEVHNAKTKPREEQYNSTYRVVSVLTVLHQDWLNGKEYKCKVSNKALPAPIEKTISKAKGQPREPQVYTLPPSRDELTKNQVSLTCLVKGFYPSDIAVEWESNGQPENNYKTTPPVLDSDGSFFLYSKLTVDKSRWQQGNVFSCSVLHEALHSHNTQKSLSLSP chain 2: DIQMTQSPSSLSASVGDSVTITCQASTDISSHLNWYQQKPGKAPELLIYYGSHLLSGVPSRFSGSGSGTDFTFTISSLEAEDAATYYCGQGNRLPYTFGQGTKVEIERTVAAPSVFIFPPSDEQLKSGTASVVCLLNNFYPREAKVQWKVDNALQSGNSQESVTEQDSKDSTYSLSSTLTLSKADYEKHKVYACEVTHQGLSSPVTKSFNRGEC,420 nM
2,F1386 (antibody) chain 1: QVQLQESGPGLVKPSETLSLTCAVSGHSISHDHAWSWVRQPPGEGLEWIGFISYSGITNYNPSLQGRVTISRDNSKNTLYLQMNSLRAEDTAVYYCARSLARTTAMDYWGEGTLVTVSSASTKGPSVFPLAPSSKSTSGGTAALGCLVKDYFPEPVTVSWNSGALTSGVHTFPAVLQSSGLYSLSSVVTVPSSSLGTQTYICNVNHKPSNTKVDKKVEPKSCDKTHTCPPCPAPELLGGPSVFLFPPKPKDTLMISRTPEVTCVVVDVSHEDPEVKFNWYVDGVEVHNAKTKPREEQYNSTYRVVSVLTVLHQDWLNGKEYKCKVSNKALPAPIEKTISKAKGQPREPQVYTLPPSRDELTKNQVSLTCLVKGFYPSDIAVEWESNGQPENNYKTTPPVLDSDGSFFLYSKLTVDKSRWQQGNVFSCYVLHEALHSHYTQKSLSLSP chain 2: DIQMTQSPSSLSASVGDSVTITCQASTDISSHLNWYQQKPGKAPELLIYYGSHLLSGVPSRFSGSGSGTDFTFTISSLEAEDAATYYCGQGNRLPYTFGQGTKVEIERTVAAPSVFIFPPSDEQLKSGTASVVCLLNNFYPREAKVQWKVDNALQSGNSQESVTEQDSKDSTYSLSSTLTLSKADYEKHKVYACEVTHQGLSSPVTKSFNRGEC,160 nM
3,F1383 (antibody) chain 1: QVQLQESGPGLVKPSETLSLTCAVSGHSISHDHAWSWVRQPPGEGLEWIGFISYSGITNYNPSLQGRVTISRDNSKNTLYLQMNSLRAEDTAVYYCARSLARTTAMDYWGEGTLVTVSSASTKGPSVFPLAPSSKSTSGGTAALGCLVKDYFPEPVTVSWNSGALTSGVHTFPAVLQSSGLYSLSSVVTVPSSSLGTQTYICNVNHKPSNTKVDKKVEPKSCDKTHTCPPCPAPELLGGPSVFLFPPKPKDTLMISRTPEVTCVVVDVSHEDPEVKFNWYVDGVEVHNAKTKPREEQYNSTYRVVSVLTVLHQDWLNGKEYKCKVSNKALPAPIEKTISKAKGQPREPQVYTLPPSRDELTKNQVSLTCLVKGFYPSDIAVEWESNGQPENNYKTTPPVLDSDGSFFLYSKLTVDKSRWQQGNVFSCRVLHEALHSHYTQKSLSLSP chain 2: DIQMTQSPSSLSASVGDSVTITCQASTDISSHLNWYQQKPGKAPELLIYYGSHLLSGVPSRFSGSGSGTDFTFTISSLEAEDAATYYCGQGNRLPYTFGQGTKVEIERTVAAPSVFIFPPSDEQLKSGTASVVCLLNNFYPREAKVQWKVDNALQSGNSQESVTEQDSKDSTYSLSSTLTLSKADYEKHKVYACEVTHQGLSSPVTKSFNRGEC,160 nM
4,F1387 (antibody) chain 1: QVQLQESGPGLVKPSETLSLTCAVSGHSISHDHAWSWVRQPPGEGLEWIGFISYSGITNYNPSLQGRVTISRDNSKNTLYLQMNSLRAEDTAVYYCARSLARTTAMDYWGEGTLVTVSSASTKGPSVFPLAPSSKSTSGGTAALGCLVKDYFPEPVTVSWNSGALTSGVHTFPAVLQSSGLYSLSSVVTVPSSSLGTQTYICNVNHKPSNTKVDKKVEPKSCDKTHTCPPCPAPELLGGPSVFLFPPKPKDTLMISRTPEVTCVVVDVSHEDPEVKFNWYVDGVEVHNAKTKPREEQYNSTYRVVSVLTVLHQDWLNGKEYKCKVSNKALPAPIEKTISKAKGQPREPQVYTLPPSRDELTKNQVSLTCLVKGFYPSDIAVEWESNGQPENNYKTTPPVLDSDGSFFLYSKLTVDKSRWQQGNVFSCSVLHEALHSHMTQKSLSLSP chain 2: DIQMTQSPSSLSASVGDSVTITCQASTDISSHLNWYQQKPGKAPELLIYYGSHLLSGVPSRFSGSGSGTDFTFTISSLEAEDAATYYCGQGNRLPYTFGQGTKVEIERTVAAPSVFIFPPSDEQLKSGTASVVCLLNNFYPREAKVQWKVDNALQSGNSQESVTEQDSKDSTYSLSSTLTLSKADYEKHKVYACEVTHQGLSSPVTKSFNRGEC,150 nM
5,F1390 (antibody) chain 1: QVQLQESGPGLVKPSETLSLTCAVSGHSISHDHAWSWVRQPPGEGLEWIGFISYSGITNYNPSLQGRVTISRDNSKNTLYLQMNSLRAEDTAVYYCARSLARTTAMDYWGEGTLVTVSSASTKGPSVFPLAPSSKSTSGGTAALGCLVKDYFPEPVTVSWNSGALTSGVHTFPAVLQSSGLYSLSSVVTVPSSSLGTQTYICNVNHKPSNTKVDKKVEPKSCDKTHTCPPCPAPELLGGPSVFLFPPKPKDTLMISRTPEVTCVVVDVSHEDPEVKFNWYVDGVEVHNAKTKPREEQYNSTYRVVSVLTVLHQDWLNGKEYKCKVSNKALPAPIEKTISKAKGQPREPQVYTLPPSRDELTKNQVSLTCLVKGFYPSDIAVEWESNGQPENNYKTTPPVLDSDGSFFLYSKLTVDKSRWQQGNVFSCSVLHEALHSHHTQKSLSLSP chain 2: DIQMTQSPSSLSASVGDSVTITCQASTDISSHLNWYQQKPGKAPELLIYYGSHLLSGVPSRFSGSGSGTDFTFTISSLEAEDAATYYCGQGNRLPYTFGQGTKVEIERTVAAPSVFIFPPSDEQLKSGTASVVCLLNNFYPREAKVQWKVDNALQSGNSQESVTEQDSKDSTYSLSSTLTLSKADYEKHKVYACEVTHQGLSSPVTKSFNRGEC,400 nM

# Stronger by Kd, values ahead:
row,Kd,Binder
1,130 nM,F1382 (antibody) chain 1: QVQLQESGPGLVKPSETLSLTCAVSGHSISHDHAWSWVRQPPGEGLEWIGFISYSGITNYNPSLQGRVTISRDNSKNTLYLQMNSLRAEDTAVYYCARSLARTTAMDYWGEGTLVTVSSASTKGPSVFPLAPSSKSTSGGTAALGCLVKDYFPEPVTVSWNSGALTSGVHTFPAVLQSSGLYSLSSVVTVPSSSLGTQTYICNVNHKPSNTKVDKKVEPKSCDKTHTCPPCPAPELLGGPSVFLFPPKPKDTLMISRTPEVTCVVVDVSHEDPEVKFNWYVDGVEVHNAKTKPREEQYNSTYRVVSVLTVLHQDWLNGKEYKCKVSNKALPAPIEKTISKAKGQPREPQVYTLPPSRDELTKNQVSLTCLVKGFYPSDIAVEWESNGQPENNYKTTPPVLDSDGSFFLYSKLTVDKSRWQQGNVFSCKVLHEALHSHYTQKSLSLSP chain 2: DIQMTQSPSSLSASVGDSVTITCQASTDISSHLNWYQQKPGKAPELLIYYGSHLLSGVPSRFSGSGSGTDFTFTISSLEAEDAATYYCGQGNRLPYTFGQGTKVEIERTVAAPSVFIFPPSDEQLKSGTASVVCLLNNFYPREAKVQWKVDNALQSGNSQESVTEQDSKDSTYSLSSTLTLSKADYEKHKVYACEVTHQGLSSPVTKSFNRGEC
2,86 nM,F1381 (antibody) chain 1: QVQLQESGPGLVKPSETLSLTCAVSGHSISHDHAWSWVRQPPGEGLEWIGFISYSGITNYNPSLQGRVTISRDNSKNTLYLQMNSLRAEDTAVYYCARSLARTTAMDYWGEGTLVTVSSASTKGPSVFPLAPSSKSTSGGTAALGCLVKDYFPEPVTVSWNSGALTSGVHTFPAVLQSSGLYSLSSVVTVPSSSLGTQTYICNVNHKPSNTKVDKKVEPKSCDKTHTCPPCPAPELLGGPSVFLFPPKPKDTLMISRTPEVTCVVVDVSHEDPEVKFNWYVDGVEVHNAKTKPREEQYNSTYRVVSVLTVLHQDWLNGKEYKCKVSNKALPAPIEKTISKAKGQPREPQVYTLPPSRDELTKNQVSLTCLVKGFYPSDIAVEWESNGQPENNYKTTPPVLDSDGSFFLYSKLTVDKSRWQQGNVFSCEVLHEALHSHYTQKSLSLSP chain 2: DIQMTQSPSSLSASVGDSVTITCQASTDISSHLNWYQQKPGKAPELLIYYGSHLLSGVPSRFSGSGSGTDFTFTISSLEAEDAATYYCGQGNRLPYTFGQGTKVEIERTVAAPSVFIFPPSDEQLKSGTASVVCLLNNFYPREAKVQWKVDNALQSGNSQESVTEQDSKDSTYSLSSTLTLSKADYEKHKVYACEVTHQGLSSPVTKSFNRGEC
3,68 nM,F1389 (antibody) chain 1: QVQLQESGPGLVKPSETLSLTCAVSGHSISHDHAWSWVRQPPGEGLEWIGFISYSGITNYNPSLQGRVTISRDNSKNTLYLQMNSLRAEDTAVYYCARSLARTTAMDYWGEGTLVTVSSASTKGPSVFPLAPSSKSTSGGTAALGCLVKDYFPEPVTVSWNSGALTSGVHTFPAVLQSSGLYSLSSVVTVPSSSLGTQTYICNVNHKPSNTKVDKKVEPKSCDKTHTCPPCPAPELLGGPSVFLFPPKPKDTLMISRTPEVTCVVVDVSHEDPEVKFNWYVDGVEVHNAKTKPREEQYNSTYRVVSVLTVLHQDWLNGKEYKCKVSNKALPAPIEKTISKAKGQPREPQVYTLPPSRDELTKNQVSLTCLVKGFYPSDIAVEWESNGQPENNYKTTPPVLDSDGSFFLYSKLTVDKSRWQQGNVFSCSVLHEALHSHTTQKSLSLSP chain 2: DIQMTQSPSSLSASVGDSVTITCQASTDISSHLNWYQQKPGKAPELLIYYGSHLLSGVPSRFSGSGSGTDFTFTISSLEAEDAATYYCGQGNRLPYTFGQGTKVEIERTVAAPSVFIFPPSDEQLKSGTASVVCLLNNFYPREAKVQWKVDNALQSGNSQESVTEQDSKDSTYSLSSTLTLSKADYEKHKVYACEVTHQGLSSPVTKSFNRGEC
4,86 nM,F1384 (antibody) chain 1: QVQLQESGPGLVKPSETLSLTCAVSGHSISHDHAWSWVRQPPGEGLEWIGFISYSGITNYNPSLQGRVTISRDNSKNTLYLQMNSLRAEDTAVYYCARSLARTTAMDYWGEGTLVTVSSASTKGPSVFPLAPSSKSTSGGTAALGCLVKDYFPEPVTVSWNSGALTSGVHTFPAVLQSSGLYSLSSVVTVPSSSLGTQTYICNVNHKPSNTKVDKKVEPKSCDKTHTCPPCPAPELLGGPSVFLFPPKPKDTLMISRTPEVTCVVVDVSHEDPEVKFNWYVDGVEVHNAKTKPREEQYNSTYRVVSVLTVLHQDWLNGKEYKCKVSNKALPAPIEKTISKAKGQPREPQVYTLPPSRDELTKNQVSLTCLVKGFYPSDIAVEWESNGQPENNYKTTPPVLDSDGSFFLYSKLTVDKSRWQQGNVFSCAVLHEALHSHYTQKSLSLSP chain 2: DIQMTQSPSSLSASVGDSVTITCQASTDISSHLNWYQQKPGKAPELLIYYGSHLLSGVPSRFSGSGSGTDFTFTISSLEAEDAATYYCGQGNRLPYTFGQGTKVEIERTVAAPSVFIFPPSDEQLKSGTASVVCLLNNFYPREAKVQWKVDNALQSGNSQESVTEQDSKDSTYSLSSTLTLSKADYEKHKVYACEVTHQGLSSPVTKSFNRGEC
